According to US11066655B2, “RNA polymerase, methods of purification and methods of use” (President and Fellows of Harvard College, priority 2013, dated 2021):

Legend:
[1] = system: plasmid pET24 DNA harboring the Syn5 RNAP gene (pET24-S5RNAP); test: Filter-binding transcription assay (3H-AMP incorporation); assay type: biochemical
Method: FIGS. 4A-4B depict the effect of temperature and pH on Syn5 RNAP activity. A) Temperature. B) pH. RNA polymerase activity was measured as described in Materials and Methods described herein. The reactions contained 6 mM MgCl2, 200 µM 4 rNTPs (^3H-ATP), 50 nM Syn5 RNAP and 4 nM template (pET24-S5RNAP). The pH was 8.0 for assays in A and the temperature was 24° C. for B. Reactions were terminated and the amount of AMP incorporated was measured at 3, 10, and 30 min. The AMP incorporation was linear in this time range and the data measured at 10 min are presented.
FIGS. 5A-5C depict reaction requirements for Syn5 RNAP. A) Effect of NaCl on Syn5 RNAP activity. B) Effect of KCl on Syn5 and T7 RNAP (dashed line) activity. C) MgCl2 concentration on Syn5 RNAP activity. Reactions contained 200 µM 4 rNTPs (^3H-ATP), 50 nM Syn5 RNAP and 4 nM template (pET24-S5RNAP). For A and B, reactions also contained 6 mM MgCl2. For C, 160 mM KCl was present. Reactions were terminated and the amount of AMP incorporated was measured at 2.5, 5, and 10 min. AMP incorporation was linear in this time range and the data measured at 10 min are presented.
Basic reaction mixtures contained 40 mM Tris-HCl (pH 8.0 unless otherwise specified), 2 mM spermidine, 10 mM DTT, 200 µM[…] GTP, C[…]P, UTP and ^3H-ATP (20 cpm/pmole), 1.5 U/µl RNaseOUT™, 50 nM Syn5 or T7 RNAP and 4 nM plasmid pET24 DNA harboring the Syn5 RNAP gene (pET24-S5RNAP) that contains a single Syn5 promoter in the RNAP gene and a single T7 promoter preceding the gene. Reaction mixtures were incubated at 24° C. unless otherwise specified.
For the assays described in FIG. 7, reaction mixtures contained 40 mM Tris-HCl (pH 8.0), 6 mM MgCl2, 2 mM spermidine, 10 mM DTT, 20 nM Syn5 or T7 RNAP, 20 nM pET24-S5RNAP DNA, 1 mM ^3H-ATP (20 cpm/pmole), CTP, UTP (or GTP), and varying amounts of GTP (or UTP). 160 mM KCl was added for the Syn5 RNAP reactions. After various times the reactions were stopped by the addition of 20 mM EDTA. 4 µl of the mixtures were then loaded onto Whatman DE81 filter paper disks and the disks were washed to remove the unincorporated ^3H-ATP. The amount of insoluble ^3H-AMP, corresponding to nucleotides incorporated into newly synthesized RNA, was measured using a scintillation counter. The data were analyzed using Prism software.

[2] = system: DNA templates S5P-tDNAR or T7P-tDNAR; test: Synthesis of tRNA^Arg at preparative scale, sequencing gel; assay type: biochemical; details: 200 µl reaction, 37° C.
Method: FIGS. 11A-11B depict synthesis of tRNA^Arg by Syn5 and T7 RNA polymerase. A) Synthesis of tRNA^Arg at analytical scale by various amounts of Syn5 and T7 RNA polymerase. Using radioactively labeled CTP, the tRNA^Arg and N+1 product (as marked) produced by 22, 67, 200 nM Syn5 and T7 RNA polymerase at 37° C. are shown. […] The DNA encoding E. coli tRNA^ArgACG is directly downstream of a Syn5 or T7 promoter for the cognate RNA polymerase to synthesize run-off tRNA transcript. B) Synthesis of tRNA^Arg at preparative scale by Syn5 and T7 RNA polymerase. The sequencing gel is showing the analysis of the total RNA products by Syn5 and T7 RNAP at 37° C. in a 200 µl reaction. […]
For the results shown in FIG. 11A, reaction mixtures (10 μl) containing 40 mM Tris-HCl pH 8.0, 6 mM MgCl2, 2 mM spermidine, 10 mM DTT, 200 µM[…]P, GTP and UTP, 10 µM [[…]-^32P]CTP, 1.5 U/µl RNaseOUT™ recombinant ribonuclease inhibitor, 0.5 μM DNA templates S5P-tDNAR or T7P-tDNAR, and various amount of Syn5 or T7 RNAP were incubated at 37° C. for 30 min before adding of one unit of DNase I to each reaction mixture and an additional incubation of 15 min at 37° C. […] After electrophoresis, gels were dried and analyzed using a Fuji BAS 1000 Bioimaging Analyzer. […] RNA quantification was based on OD260 measurement using NANOPHOTOMETER (IMPLEN). […]

Molecule | sensitivity to ionic strength ([1]; KCl titration, FIG. 5B) | N+1 products in total products [2] | potassium required for maximal activity [1] [mM] | metal ions in place of Mg2+ as cofactor ([1]; 10 mM Ca2+, Co2+, Cu2+ or Ni2+) | metal ions in place of Mg2+ as cofactor ([1]; 10 mM Zn2+ or Mn2+) | increase of activity by NaCl ([1]; 80 mM NaCl, 6 mM MgCl2) | stimulation of activity by KCl ([1]; 160 mM KCl, 6 mM MgCl2) | activity remaining ([1]; 300 mM KCl) [%] | pH of highest activity ([1]; 24° C.) | % of maximum activity ([1]; at 0° C.) [%] | % of maximum activity ([1]; at 37° C.) [%] | % of maximum activity ([1]; at 42° C.) [%] | Km ([1]; in the presence of 160 mM KCl, read-out: Km for MgCl2 as cofactor) [µM] | optimum temperature ([1]; pH 8.0, 6 mM MgCl2, 50 nM RNAP, 4 nM template) [°C]
T7 RNAP: RNA polymerase encoded by bacteriophage T7, from New England Biolabs [reference compound] | highly sensitive to the ionic strength of the reaction | more than 50% |  |  |  |  |  |  |  |  |  |  |  | 
Syn5 RNAP: single subunit DNA-dependent RNA polymerase from marine cyanophage Syn5, amino acid sequence SEQ ID NO:23 (protein, Amino acid sequence of a cyanophage Syn5 RNAP) MSFDLIARQLQRETEAAELARKRLQDARREANERSYASSNIESRKAIATFLDPIAQRIGERLFTLRRGTGAVDAAEVYKHLKNADHHHLALITMKTALDVLGKDPEPQIQQLTTAIGRNIQLELRLTYYAEENPELYKQASRFFHAGTGTRQKATVIKLKFNREGIEWDQWSRVTCHKVGQWLMLAMADVTGWIERATDRTSGGRKTKTRICYSREFLQHRDTILAAAEQLAFCQWPMLCPPIEWSNDHNGGYLSEQIRRVNPLIRKTGPLGTRKQGDIPLAMLNNLQGQAYKVNPEVLDIANHCYESNVTVGKFIRHAPLPVPPSPGEDCTEDQLTAYKRARREAEDFNAQISQKNWRTTEVMYVARKYADEASFWMPASFDYRGRVYFLNTALNPQGTDFDKALLYFAEEGPVNEWWLSFHVATTYGLDKETMVNRVQWARDNHELIDRIASDPVRHTEWHDADEPWCFLAACLEYKACVIDGTKQTSGLPIGIDATCSGLQHLAAMTRCGRTAALVNVTPTDKPADAYKTVAQASLKHLPKEQHEWITRKVTKRPVMCTPYGVTMSSARGYIRDQLVKDGHKEDLRSPGVLNGIVKAIFNEAIPEVIPGPVQVMAWLKRSAGQIIDRGDSTITWTTPSGFEVVQDLKKSKTYEVKTRIMGGARIKLQVGDGFTDEPDRDHHKSALAPNVVHSNDASLLHLTFAFWDKPFTVIHDCVLGRSCDMDQMGSDIRLHFAEMYKADVMQDWADQVGVELPVDLIKNTLDIDSVNQSLYFFS |  | negligible | 160 | cannot replace Mg^2+ | A small amount of activity | two-fold | three-fold | 10 | 8.0 | 15 | 8 | 2 | ~2500 | 24
